The subject of data set [1] is HeLa Kyoto. Nature of the data set: melting temperature (median over replicates), in situ; higher = more thermally stable.
Data set [2] has as its system HeLa Kyoto. Nature of the data set: solubility in G1/S (NP-40 vs SDS abundance) (log2 ratio); higher = more soluble. Particulars: cell cycle stage: G1/S.
Data set [3] deals with HeLa Kyoto. The experiment in a line: solubility change mitosis vs G1/S (difference of NP-40 vs SDS log2 ratios) (log2 ratio difference); higher = more soluble in mitosis.
Data set [4] concerns HeLa Kyoto. The experiment in a line: thermal stability score vs G1/S (z-score of summed log2 fold changes over temperatures); higher = more thermally stable than in G1/S.
The mark [5] stands for this setting: cell cycle stage: early G1 (4.5 h after nocodazole release).
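For melting temperature (median over replicates), in situ in this document: HeLa Kyoto cells synchronized by double thymidine or nocodazole block, proteins quantified by TMT10plex mass spectrometry, three independent biological replicates.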
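For solubility change mitosis vs G1/S (difference of NP-40 vs SDS log2 ratios) in this document: synchronized HeLa Kyoto cells (double thymidine block for G1/S, nocodazole release for mitosis), protein amounts in NP-40 versus SDS lysates quantified by mass spectrometry, three biological replicates.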
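For solubility in G1/S (NP-40 vs SDS abundance) in this document: HeLa Kyoto cells arrested at G1/S by double thymidine block, proteins quantified by TMT10plex mass spectrometry in mild NP-40 versus SDS extracts, three biological replicates.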
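For thermal stability score vs G1/S (z-score of summed log2 fold changes over temperatures) in this document: synchronized HeLa Kyoto cells, proteins quantified by TMT10plex mass spectrometry, three biological replicates, mitosis taken 0.5 h after nocodazole release, G1/S directly after double thymidine block.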

With “MKSLSLLLAVALGLATAVSAGPAVIECWFVEDASGKGLAKRPGALLLRQGPGEPPPRPDLDPELYLSVHDPAGALQAAFRRYPRGAPAPHCEMSRFVPLPASAKWASGLTPAQNCPRALDGAWLMVSISSPVLSLSSLLRPQPEPQQEPVLITMATVVLTVLTHTPAPRVRLGQDALLDLSFAYMPPTSEAASSLAPGPPPFGLEWRRQHLGKGHLLLAATPGLNGQMPAAQEGAVAFAAWDDDEPWGPWTGNGTFWLPTVQPFQEGTYLATIHLPYLQGQVTLELAVYKPPKVSLMPATLARAAPGEAPPELLCLVSHFYPSGGLEVEWELRGGPGGRSQKAEGQRWLSALRHHSDGSVSLSGHLQPPPVTTEQHGARYACRIHHPSLPASGRSAEVTLEVAGLSGPSLEDSVGLFLSAFLLLGLFKALGWAAVYLSTCKDSKKKAE [TAPBP]”, the melting temperature in data set [1] (cell cycle stage: G1/S) came out at 52.5 °C; in data set [1] (cell cycle stage: mitosis), 53 °C. Also, the “solubility in G1/S (log2)” value in data set [2] was determined as 0.297. Further, the “solubility change mitosis (log2)” value in data set [3] came to 0.000151. For the same sequence, the thermal stability score in data set [4] (setting [5]) came out at 0.903; in data set [4] (cell cycle stage: mitosis) it was 1.98.

Turning to “MKVARFQKIPNGENETMIPVLTSKKASELPVSEVASILQADLQNGLNKCEVSHRRAFHGWNEFDISEDEPLWKKYISQFKNPLIMLLLASAVISVLMHQFDDAVSITVAILIVVTVAFVQEYRSEKSLEELSKLVPPECHCVREGKLEHTLARDLVPGDTVCLSVGDRVPADLRLFEAVDLSIDESSLTGETTPCSKVTAPQPAATNGDLASRSNIAFMGTLVRCGKAKGVVIGTGENSEFGEVFKMMQAEEAPKTPLQKSMDLLGKQLSFYSFGIIGIIMLVGWLLGKDILEMFTISVSLAVAAIPEGLPIVVTVTLALGVMRMVKKRAIVKKLPIVETLGCCNVICSDKTGTLTKNEMTVTHIFTSDGLHAEVTGVGYNQFGEVIVDGDVVHGFYNPAVSRIVEAGCVCNDAVIRNNTLMGKPTEGALIALAMKMGLDGLQQDYIRKAEYPFSSEQKWMAVKCVHRTQQDRPEICFMKGAYEQVIKYCTTYQSKGQTLTLTQQQRDVYQQEKARMGSAGLRVLALASGPELGQLTFLGLVGIIDPPRTGVKEAVTTLIASGVSIKMITGDSQETAVAIASRLGLYSKTSQSVSGEEIDAMDVQQLSQIVPKVAVFYRASPRHKMKIIKSLQKNGSVVAMTGDGVNDAVALKAADIGVAMGQTGTDVCKEAADMILVDDDFQTIMSAIEEGKGIYNNIKNFVRFQLSTSIAALTLISLATLMNFPNPLNAMQILWINIIMDGPPAQSLGVEPVDKDVIRKPPRNWKDSILTKNLILKILVSSIIIVCGTLFVFWRELRDNVITPRDTTMTFTCFVFFDMFNALSSRSQTKSVFEIGLCSNRMFCYAVLGSIMGQLLVIYFPPLQKVFQTESLSILDLLFLLGLTSSVCIVAEIIKKVERSREKIQKHVSSTSSSFLEV [ATP2C1]”, the figures for the melting temperature in data set [1] (cell cycle stage: G1/S) and in data set [1] (cell cycle stage: mitosis) were 54.1 °C and 54.2 °C, respectively. Further, the “solubility in G1/S (log2)” value in data set [2] is -0.143. For the same sequence, in data set [3], the “solubility change mitosis (log2)” value is -0.0972. The thermal stability score was -1.8 in data set [4] (setting [5]) and -1.34 in data set [4] (cell cycle stage: mitosis).

For the sequence “MKVTLSALDTSESSFTPLVVIELAQDVKEETKEWLKNRIIAKKKDGGAQLLFRPLLNKYEQETLENQNLYLVGASKIRMLLGAEAVGLVKECNDNTMRAFTYRTRQNFKGFDDNNDDFLTMAECQFIIKHELENLRAKDEKMIPGYPQAKLYPGKSLLRRLLTSGIVIQVFPLHDSEALKKLEDTWYTRFALKYQPIDSIRGYFGETIALYFGFLEYFTFALIPMAVIGLPYYLFVWEDYDKYVIFASFNLIWSTVILELWKRGCANMTYRWGTLLMKRKFEEPRPGFHGVLGINSITGKEEPLYPSYKRQLRIYLVSLPFVCLCLYFSLYVMMIYFDMEVWALGLHENSGSEWTSVLLYVPSIIYAIVIEIMNRLYRYAAEFLTSWENHRLESAYQNHLILKVLVFNFLNCFASLFYIAFVLKDMKLLRQSLATLLITSQILNQIMESFLPYWLQRKHGVRVKRKVQALKADIDATLYEQVILEKEMGTYLGTFDDYLELFLQFGYVSLFSCVYPLAAAFAVLNNFTEVNSDALKMCRVFKRPFSEPSANIGVWQLAFETMSVISVVTNCALIGMSPQVNAVFPESKADLILIVVAVEHALLALKFILAFAIPDKPRHIQMKLARLEFESLEALKQQQMKLVTENLKEEPMESGKEKAT [ANO10]”, the melting temperature in data set [1] (cell cycle stage: G1/S) amounted to 53.2 °C; in data set [1] (cell cycle stage: mitosis), 51.9 °C. Further, the “solubility in G1/S (log2)” value in data set [2] is -0.181. Besides, the “solubility change mitosis (log2)” value in data set [3] is -0.214. The thermal stability score in data set [4] (setting [5]) was -0.93; in data set [4] (cell cycle stage: mitosis), -1.12.

As to “MLAARLVCLRTLPSRVFHPAFTKASPVVKNSITKNQWLLTPSREYATKTRIGIRRGRTGQELKEAALEPSMEKIFKIDQMGRWFVAGGAAVGLGALCYYGLGLSNEIGAIEKAVIWPQYVKDRIHSTYMYLAGSIGLTALSAIAISRTPVLMNFMMRGSWVTIGVTFAAMVGAGMLVRSIPYDQSPGPKHLAWLLHSGVMGAVVAPLTILGGPLLIRAAWYTAGIVGGLSTVAMCAPSEKFLNMGAPLGVGLGLVFVSSLGSMFLPPTTVAGATLYSVAMYGGLVLFSMFLLYDTQKVIKRAEVSPMYGVQKYDPINSMLSIYMDTLNIFMRVATMLATGGNRKK [GHITM]”, the melting temperature turned out to be 54.7 °C in data set [1] (cell cycle stage: G1/S) and 55.1 °C in data set [1] (cell cycle stage: mitosis). Further, the “solubility in G1/S (log2)” value in data set [2] is -0.101. Moreover, in data set [3], the “solubility change mitosis (log2)” value worked out at 0.0227. Also, the thermal stability score in data set [4] (setting [5]) was -2.96; in data set [4] (cell cycle stage: mitosis), -4.77.

With “MLARAARGTGALLLRGSLLASGRAPRRASSGLPRNTVVLFVPQQEAWVVERMGRFHRILEPGLNILIPVLDRIRYVQSLKEIVINVPEQSAVTLDNVTLQIDGVLYLRIMDPYKASYGVEDPEYAVTQLAQTTMRSELGKLSLDKVFRERESLNASIVDAINQAADCWGIRCLRYEIKDIHVPPRVKESMQMQVEAERRKRATVLESEGTRESAINVAEGKKQAQILASEAEKAEQINQAAGEASAVLAKAKAKAEAIRILAAALTQHNGDAAASLTVAEQYVSAFSKLAKDSNTILLPSNPGDVTSMVAQAMGVYGALTKAPVPGTPDSLSSGSSRDVQGTDASLDEELDRVKMS [STOML2]”, the results for the melting temperature in data set [1] (cell cycle stage: G1/S) and in data set [1] (cell cycle stage: mitosis) were 56.9 °C and 59.3 °C, respectively. The “solubility in G1/S (log2)” value in data set [2] was 0.262. The “solubility change mitosis (log2)” value in data set [3] worked out at 0.0559. The thermal stability score was -3.41 in data set [4] (setting [5]) and -3.22 in data set [4] (cell cycle stage: mitosis).

The record behind these values is the supplement of paper PMC5998384.
